Assay results: publication PMC5159831, “Harnessing the natural inhibitory domain to control TNFα Converting Enzyme (TACE) activity in vivo” (Scientific Reports, 2016)

How the values were obtained:
[1] = biological target: the molecule itself; assay: SDS-PAGE under non-reducing conditions; purified TPD; 40 kDa band = covalent (disulfide-linked) dimer, 20 kDa band = monomer
[2] = biological target: recombinant TACE catalytic domain; assay: cell-based or functional assay
recombinant TACE catalytic domain, sequence (P78536 215-671): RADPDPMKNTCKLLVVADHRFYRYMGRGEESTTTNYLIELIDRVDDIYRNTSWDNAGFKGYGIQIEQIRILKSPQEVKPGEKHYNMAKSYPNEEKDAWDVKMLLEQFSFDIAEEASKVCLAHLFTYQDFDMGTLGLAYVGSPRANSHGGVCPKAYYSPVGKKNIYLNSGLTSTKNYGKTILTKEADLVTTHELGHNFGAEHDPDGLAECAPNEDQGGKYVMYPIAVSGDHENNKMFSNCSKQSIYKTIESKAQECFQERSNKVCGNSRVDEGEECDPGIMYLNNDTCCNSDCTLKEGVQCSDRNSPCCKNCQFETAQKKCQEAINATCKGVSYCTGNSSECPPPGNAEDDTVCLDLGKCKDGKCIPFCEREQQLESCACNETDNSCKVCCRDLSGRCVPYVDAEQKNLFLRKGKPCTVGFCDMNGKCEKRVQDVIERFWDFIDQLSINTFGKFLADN

B1: TACE prodomain (TPD), wild type, Asp23-Arg214 (domain or fragment, human, UniProt P78536 23-214, looked up)
chain: DPGFGPHQRLEKLDSLLSDYDILSLSNIQQHSVRKRDLQTSTHVETLLTFSALKRHFKLYLTSSTERFSQNFKVVVVDGKNESEYTVKWQDFFTGHVVGEPDSRVLAHIRDDDVIIRINTDGAEYNIEPLWRFVNDTKDKRMLVYKSEDIKNVSRLQSPKVCGYLKVDNEELLPKGLVDREPPEELVHRVKR
notes: prodomain of human ADAM17/TACE, residues Asp23-Arg214; The methods say Asp24-Arg214, but the DNA fits Asp23; The WT runs as a disulfide-linked dimer without reducing agent; also called WT TPD; TPD WT; source: E. coli BL21 (DE3), pET28, soluble fraction, purified (Ni column, HiTrap Q, Superdex 75)
- stoichiometry N [1]: 2
- IC50 of inhibition of the enzyme's hydrolysis of a fluorogenic peptide (10 nM TACE, Mca-PLAQAV-Dpa-RSSSR 10 μM, 37 °C, 30 min pre-incubation with TPD) [2]: 145 nM

B2: TACE prodomain (TPD) C184A (domain or fragment, human, UniProt P78536 23-214, looked up)
chain: DPGFGPHQRLEKLDSLLSDYDILSLSNIQQHSVRKRDLQTSTHVETLLTFSALKRHFKLYLTSSTERFSQNFKVVVVDGKNESEYTVKWQDFFTGHVVGEPDSRVLAHIRDDDVIIRINTDGAEYNIEPLWRFVNDTKDKRMLVYKSEDIKNVSRLQSPKVAGYLKVDNEELLPKGLVDREPPEELVHRVKR
- IC50 of inhibition of the enzyme's hydrolysis of a fluorogenic peptide (10 nM TACE, 37 °C) [2]: 33 nM
